Measured values taken from patent US7279548 (CYTOGEN, dated 2007).
No end group written: not given here. *: point of attachment. Biotin = O=C1N[C@H]2[C@H](CS[C@H]2CCCCC(=O)*)N1

How the values were obtained:
[1] = biological target: T1, WWP3 WW domain expressed as GST fusion protein (human); assay: ELISA cross affinity mapping, GST-WW fusion
T1 construct: Whole WWP3 entry named; not shown: glutathione S-transferase (GST) fusion partner

[2] = biological target: T2, WWP2.4 WW domain expressed as GST fusion protein (human); assay: ELISA cross affinity mapping, GST-WW fusion
T2 construct: Whole WWP2 entry named; also called WW2.4; not shown: glutathione S-transferase (GST) fusion partner
T2 sequence (chain, as listed by the source): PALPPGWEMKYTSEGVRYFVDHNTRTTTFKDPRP

[3] = biological target: T3, WWP1.4 WW domain expressed as GST fusion protein (human); assay: ELISA cross affinity mapping, GST-WW fusion
T3 construct: Whole WWP1 entry named; not shown: glutathione S-transferase (GST) fusion partner

[4] = biological target: T4, WWP2.1 WW domain expressed as GST fusion protein (human); assay: ELISA cross affinity mapping, GST-WW fusion
T4 construct: Whole WWP2 entry named; not shown: glutathione S-transferase (GST) fusion partner
T4 sequence (chain, as listed by the source): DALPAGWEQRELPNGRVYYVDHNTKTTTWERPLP

[5] = biological target: T5, WWP1.2 WW domain expressed as GST fusion protein (human); assay: ELISA cross affinity mapping, GST-WW fusion
T5 construct: Whole WWP1 entry named; not shown: glutathione S-transferase (GST) fusion partner
T5 sequence (chain, as listed by the source): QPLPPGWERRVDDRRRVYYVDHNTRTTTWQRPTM

[6] = biological target: T6, WWP1.1 WW domain expressed as GST fusion protein (human); assay: ELISA cross affinity mapping, GST-WW fusion
T6 construct: Whole WWP1 entry named; not shown: glutathione S-transferase (GST) fusion partner
T6 sequence (chain, as listed by the source): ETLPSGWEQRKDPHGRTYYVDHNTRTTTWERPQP

[7] = biological target: T7, WWP2.3 WW domain expressed as GST fusion protein (human); assay: ELISA cross affinity mapping, GST-WW fusion
T7 construct: Whole WWP2 entry named; not shown: glutathione S-transferase (GST) fusion partner
T7 sequence (chain, as listed by the source): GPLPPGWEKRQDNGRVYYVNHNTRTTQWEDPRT

[8] = biological target: T8, WWP1.3 WW domain expressed as GST fusion protein (human); assay: ELISA cross affinity mapping, GST-WW fusion
T8 construct: Label WWP1.3 follows the pattern of the printed labels; whole WWP1 entry named; not shown: glutathione S-transferase (GST) fusion partner
T8 sequence (chain, as listed by the source): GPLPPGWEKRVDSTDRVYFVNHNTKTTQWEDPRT

[9] = biological target: T9, WWP2.2 WW domain expressed as GST fusion protein (human); assay: ELISA cross affinity mapping, GST-WW fusion
T9 construct: Whole WWP2 entry named; not shown: glutathione S-transferase (GST) fusion partner
T9 sequence (chain, as listed by the source): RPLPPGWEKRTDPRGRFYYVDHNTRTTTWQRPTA

[10] = biological target: T2, WWP2.4 WW domain expressed as GST …; assay: cross affinity mapping, GST-WW fusion
[11] = biological target: T3, WWP1.4 WW domain expressed as GST …; assay: cross affinity mapping, GST-WW fusion
[12] = biological target: T4, WWP2.1 WW domain expressed as GST …; assay: cross affinity mapping, GST-WW fusion
[13] = biological target: T5, WWP1.2 WW domain expressed as GST …; assay: cross affinity mapping, GST-WW fusion
[14] = biological target: T6, WWP1.1 WW domain expressed as GST …; assay: cross affinity mapping, GST-WW fusion
[15] = biological target: T7, WWP2.3 WW domain expressed as GST …; assay: cross affinity mapping, GST-WW fusion
[16] = biological target: T8, WWP1.3 WW domain expressed as GST …; assay: cross affinity mapping, GST-WW fusion
[17] = biological target: T9, WWP2.2 WW domain expressed as GST …; assay: cross affinity mapping, GST-WW fusion

T1 sequence (chain, as listed by the source): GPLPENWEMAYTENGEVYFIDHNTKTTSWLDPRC

Row | Binder | binding result [1] | binding result [2] | binding result [3] | binding result [4] | binding result [5] | binding result [6] | binding result [7] | binding result [8] | binding result [9] | binding result [10] | binding result [11] | binding result [12] | binding result [13] | binding result [14] | binding result [15] | binding result [16] | binding result [17]
1 | Biotin-SGSGYVQPPPPPYPGPM (Tested as SA-AP complex) [WBP-2A peptide (biotin-SGSGYVQPPPPPYPGPM)] | binds |  |  |  |  |  |  |  |  |  |  |  |  |  |  |  | 
2 | Biotin-SGSGYVQPPPAPYPGPM [WBP-2A-Pro4 (alanine substitution of the third proline of the PPPPY motif of WBP-2A)] | no binding | no binding | no binding | no binding | no binding | no binding | no binding | no binding | no binding |  |  |  |  |  |  |  | 
3 | Biotin-SGSGPGTPYPPPPEFY (Tested as SA-AP complex) [WBP-2B peptide (biotin-SGSGPGTPYPPPPEFY)] | no binding | no binding | no binding | no binding | no binding | no binding | no binding | no binding | no binding |  |  |  |  |  |  |  | 
4 | Biotin-SGSGPGTPPPPYTVGPGY (Tested as streptavidin-enzyme complex) [WBP-1 peptide (biotin-SGSGPGTPPPPYTVGPGY)] | no binding |  |  |  |  |  |  |  |  |  |  |  |  |  |  |  | 
5 | Biotin-SGSGPGTPPAPYTVGPGY (not fully specified) [WBP-1-Pro3 (alanine substitution at the third proline position of the PPPPY motif of WBP-1)] |  | no binding | no binding | no binding | no binding | no binding | no binding | no binding | no binding |  |  |  |  |  |  |  | 
6 | Biotin-PGTPPLNYDSLRL [ENaCβ-P616L peptide] |  |  |  |  |  |  |  |  |  | no binding | no binding | no binding | no binding | no binding | no binding | no binding | no binding
7 | Biotin-PGTPPPNHDSLRL [ENaCβ-Y618H peptide] |  |  |  |  |  |  |  |  |  | no binding | no binding | no binding | no binding | no binding | no binding | no binding | no binding
8 | NRLDLPPAETFED (also: biotinylated, Short peptide) |  |  |  |  |  |  |  |  |  | no binding | no binding | no binding | no binding | no binding | no binding | no binding | no binding
9 | NRLDLPPAKSYEQ (also: biotinylated, Short peptide) |  |  |  |  |  |  |  |  |  | no binding | no binding | no binding | no binding | no binding | no binding | no binding | no binding
